Data from patent US20110300113A1, “Death Receptor CD95 Controls Neurogenesis of Adult Neural Stem Cells in Vivo and in Vitro” (DEUTSCHES KREBSFORSCHUNGSZENTRUM, priority 2006, published 2011).

Tests used:
neural progenitor cells = experiment: GFAP expression (glial differentiation) in neural progenitor cells; format: cell-based, mouse; conditions: data not shown
Method: (§1) For staining of intracellular markers, cells were harvested, fixed with 4% PFA for 10 min on ice, washed and permeabilized using 0.1% Saponin (Sigma-Aldrich) in PBS with 10% FCS (SAP). Cells were incubated with primary antibody or isotype for 30 min on ice. Cells were washed three time with SAP and incubated with secondary antibody for 30 min on ice. Cells were washed again three times with SAP and analysed. Antibodies used were: anti β-III-tubulin (Chemicon) 1:100, anti GFAP (Chemicon) 1:100 and isotype mouse IgG1 (Sigma) 1:20. Secondary antibody was goat anti-mouse PE 1:100 (Dianova). To quantify DNA fragmentation, cells detached with trypsin were centrifuged, washed and fixed with 70% ethanol at −20° C. for 1 h. Fixed cells were resuspended in a hypotonic lysis buffer (0.1% sodium citrate and 0.1% Triton X-100) containing […] of propidium iodide, incubated at 4° C. overnight. After final washings, all samples were analysed using a FACS-Calibur (Becton Dickinson) and CellQuest Software (Becton Dickinson).
Mouse adult neural stem cell culture. NSCs were isolated as previously described^30. Briefly, 6 week old female C57BL6 mice were sacrificied and tissue from hippocampus, SVZ and spinal cord was dissected out. […]

NSCs = experiment: Apoptosis and caspase activity in NSCs; format: cell-based, mouse
Method: as §1
Caspase Activity Assay. Apostat Intracellular Caspase Detection Caspase Activity Assay was purchased from R&D Systems. Assay was performed according to the manufacturers' instructions and analyzed using a FACSCalibur (Becton Dickinson) and CellQuest software (Becton Dickinson).

SVZ NSCs = experiment: β-III-tubulin expression in adult SVZ neural progenitor cells (flow cytometry); format: cell-based, mouse; conditions: SVZ progenitors, in the presence of growth factors
From the text: Lentiviral infections. SVZ NSCs were infected with the lentiviral vector pEIGW and pEIGW-GSK3βS9A at a multiplicity of infection (MOI) of 5. The plasmids were constructed by replacing the eGFP sequence between the EF1α promotor and the WPRE element in pWPTS-eGFP with the IRES-eGFP cassette form pIRES2-eGFP (Clontech, Germany). The recombinant lentiviral vector pEIGW-GSK3βS9A was constructed using pcDNA3 HA-GSK3βS9A. This vector encodes a constitutively active GSK3β mutant containing a serine-to-alanine substitution at residue 9 (GSK3βS9A). Expression of all transgenes was confirmed in infected cells by FACS analysis of GFP expression. The percentage of infected cells was 70-90%.
siRNA. […] 48 h later pp60 src knockdown was assessed by Western Blot. At the same time, cells were stimulated with CD95L-T4 and analysed after 48 h for β-III-tubulin positive cells.
For staining of intracellular markers, cells were harvested, fixed with 4% PFA for 10 min on ice, washed and permeabilized using 0.1% Saponin (Sigma-Aldrich) in PBS with 10% FCS (SAP). […] Cells were washed again three times with SAP and analysed. […] To quantify DNA fragmentation, cells detached with trypsin were centrifuged, washed and fixed with 70% ethanol at −20° C. for 1 h. […] After final washings, all samples were analysed using a FACS-Calibur (Becton Dickinson) and CellQuest Software (Becton Dickinson). […]

CD95 = biological target: T1, CD95 (Mus musculus, UniProt P25446); experiment: Immunoprecipitation of CD95 / phosphotyrosine from stimulated NSCs; format: cell-based; conditions: NSCs or developing neurons
T1 construct: pp60 and p85 association to CD95 increased at 1 minutes and 5 minutes after stimulation of NSCs with 1 U CD95L-T4; endogenous in cells; host or cells: mouse adult neural stem cells (C57BL6)
T1 sequence (P25446 22-327): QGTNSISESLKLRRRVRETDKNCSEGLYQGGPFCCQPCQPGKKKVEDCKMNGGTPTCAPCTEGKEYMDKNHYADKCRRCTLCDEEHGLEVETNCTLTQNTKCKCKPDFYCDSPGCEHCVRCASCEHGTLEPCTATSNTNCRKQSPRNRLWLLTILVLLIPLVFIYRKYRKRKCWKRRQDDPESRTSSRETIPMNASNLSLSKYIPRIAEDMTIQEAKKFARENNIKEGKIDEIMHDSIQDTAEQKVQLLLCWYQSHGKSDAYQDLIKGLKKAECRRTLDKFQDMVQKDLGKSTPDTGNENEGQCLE
Method: Immunoprecipitation. 2×10^7 cells were either treated with 1 activation unit (5-40 ng/ml depending on the batch of CD95L-T4) or 5000 ng/ml CD95L-T4 for 1 and 5 minutes (unless otherwise indicated) at 37° C. or left untreated, washed twice in PBS plus phosphatase inhibitors (NaF, NaN3, pNPP, NaPPi, β-Glycerolphosphate, 10 mM each and 2 mM orthovanadate), and subsequently lysed in buffer A (20 mM Tris/HCl, pH 7.5, 150 mM NaCl, 2 mM EDTA, 1 mM phenylmethylsulfonyl fluoride, protease inhibitor cocktail (Roche), 1% Triton X-100 (Serva, Heidelberg, Germany), 10% glycerol, and phosphatase inhibitors (NaF, NaN3, pNPP, NaPPi, 1′-Glycerolphosphate, 10 mM each and 2 mM orthovanadate) (stimulated condition) or lysed without treatment (unstimulated condition). Protein concentration was determined using BCA kit (Pierce). 1 mg of protein was immunoprecipitated overnight with either 5 μg anti-CD95 AB Jo2 or 5 μg anti-phospho tyrosine antibody (pTyr 4G10 (Upstate)) and 30 μl protein-A Sepharose. Beads were washed 5 times with 20 volumes of lysis buffer. The immunoprecipitates were mixed with 60 μl of Laemmli buffer and 30 μl were analyzed on either 15% or 7.5% SDS-PAGE. […]

B1: CD95L: the ligand for CD95 (APO-1/Fas) (protein, listed as Homo sapiens)
chain: MQQPFNYPYPQIYWVDSSASSPWAPPGTVLPCPTSVPRRPGQRRPPPPPPPPPLPPPPPPPPLPPLPLPPLKKRGNHSTGLCLLVMFFMVLVALVGLGLGMFQLFHLQKELAELRESTSQMHTASSLEKQIGHPSPPPEKKELRKVAHLTGKSNSRSMPLEWEDTYGIVLLSGVKYKKGGLVINETGLYFVYSKVYFRGQSCNNLPLSHKVYMRNSKYPQDLVMMEGKMMSYCTTGQMWARSSYLGAVFNLTSADHLYVNVSELSLVNFEESQTFFGLYKL
modifications: CHAIN (1)..(281) This feature is the amino acid sequence for CD95L protein. CD95L is a ligand for CD95. CD95 is APO-1/Fas and a member of the tumor necrosis factor receptor superfamily.
GFAP expression (neural progenitor cells): did not change GFAP expression | apoptosis (NSCs): could not detect apoptosis | β-III-tubulin expression (SVZ NSCs): greatly increased β-III-tubulin expression | FADD recruitment to CD95 (CD95): did not induce efficient recruitment of the adaptor molecule FADD
